In PMC314469, “Protein Interaction Networks by Proteome Peptide Scanning” (PLoS Biology, 2004) one finds normalised SPOT signal, Boehringer light units (BLU); mean over the file's lines of this peptide data, which are given here for 15 molecules.

Common to all, as to experiment: SPOT array
For assay [1], the target named is T1, Yfr024 SH3 (LSB3_YEAST), P43603.
T1 chain: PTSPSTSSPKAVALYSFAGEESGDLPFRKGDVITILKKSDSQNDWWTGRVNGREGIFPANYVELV

Assay [2] concerns the target T2, Rvs167 SH3 (RV167_YEAST), P39743.
T2 chain: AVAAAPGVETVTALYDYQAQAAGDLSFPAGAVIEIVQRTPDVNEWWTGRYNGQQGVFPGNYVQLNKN

The target in assay [3] is T3, Boi1 SH3 (BOI1_YEAST), P38041.
T3 chain: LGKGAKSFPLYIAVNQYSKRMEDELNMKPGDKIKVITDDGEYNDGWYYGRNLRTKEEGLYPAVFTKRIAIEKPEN

In assay [4] the target is T4, Yhr016c SH3 (YSC84_YEAST), P32793.
T4 chain: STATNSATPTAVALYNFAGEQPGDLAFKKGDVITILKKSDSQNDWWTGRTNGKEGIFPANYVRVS

Assay [5] concerns the target T5, Boi2 SH3 (BOI2_YEAST), P39969.
T5 chain: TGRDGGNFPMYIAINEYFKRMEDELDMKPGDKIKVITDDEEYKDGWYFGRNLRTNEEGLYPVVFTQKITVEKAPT

With MQGPKIPWRSGRVD [YKR066C 186-199], the normalised SPOT signal, Boehringer light units (BLU); mean over the file's lines of this peptide was 15900 in assay [1]; 1270 in assay [2]; 2850 in assay [3]; 13800 in assay [4]; 651 in assay [5].
On to MRAPPSPRKSKSGH [YOR255W 1-14], for which the normalised SPOT signal, Boehringer light units (BLU); mean over the file's lines of this peptide in assay [1] was 1240; in assay [2] it was 261; in assay [3] it was 81.1; in assay [4] it was 1100; in assay [5], 168.
For MKAPKMPDKHRDNY [YDL031W 923-936], the normalised SPOT signal, Boehringer light units (BLU); mean over the file's lines of this peptide in assay [1] was 1760; in assay [2] it was 331; in assay [3], 163; in assay [4], 399; in assay [5], 162.
For MLIPNFPNKKLKLN [YHR086W 128-141], the normalised SPOT signal, Boehringer light units (BLU); mean over the file's lines of this peptide in assay [1] is 1090; in assay [2], 70.8; in assay [3] it was 34.7; in assay [4], 423; in assay [5], 59.7.
As for LWIPDDPSKARFLS [YJR152W 267-280], the normalised SPOT signal, Boehringer light units (BLU); mean over the file's lines of this peptide in assay [1] is 561; in assay [2], 36.6; in assay [3] it was 63.1; in assay [4], 200; in assay [5], 25.2.
In the same order, the values of MSEPEVPFKVVAQF [YJL020C 1-14] are 48.9, 19.9, 74.2, 105 and 64.8.
On the same counts, the results for LWQPVDPSREDLVI [YLR301W 128-141] are 179, 0.8, 49.2, 139 and 51.5.
In the same order, the values of LYKPGMPPRPHFIT [YNL045W 494-507] are 899, 34.7, 25.6, 326 and 60.6.
For MPTPMTPVKVGALA [YNL040W 1-14], the normalised SPOT signal, Boehringer light units (BLU); mean over the file's lines of this peptide in assay [1] was found to be 288; in assay [2], 11; in assay [3], 13.5; in assay [4], 66.7; in assay [5], 55.
As for MSLPVTPVKSKVSS [YER032W 50-63], the normalised SPOT signal, Boehringer light units (BLU); mean over the file's lines of this peptide in assay [1] amounted to 2120; in assay [2], 111; in assay [3], 0.6; in assay [4], 257; in assay [5], 37.9.
On the same counts, the results for LVTPEEPAKNKSER [YDL129W 13-26] are 49.1, 78.8, 126, 69.6 and 74.6.
In the same order, the values of MALPRTPLKTSTEE [YCL009C 276-289] are 1130, 338, 100, 280 and 101.
On the same counts, the results for MEYPFKPPKMQFDT [YDR177W 60-73] are 483, 68.7, 56.3, 178 and 55.1.
On to MAAPPVPPKQSQED [YPL084W 790-803], for which the normalised SPOT signal, Boehringer light units (BLU); mean over the file's lines of this peptide in assay [1] was determined as 4570; in assay [2], 52.4; in assay [3] it was 84.2; in assay [4], 279; in assay [5], 40.6.
On the same counts, the results for MTAPLWPNKNEKNH [YOR337W 1-14] are 109, 55.3, 32.9, 257 and 25.8.
